Source: patent US12617856B2, “Protease-cleavable substrates and methods of use thereof” (CytomX Therapeutics, Inc., priority 2022, dated 2026)
Starred links: 1 amine or outer side, 2 acyl side, 3 side chain; linkers in the order of their positions; H or OH if unused. No end group written: not given here. *: point of attachment. K(DNP) = O=C([C@H](CCCCNc1ccc([N+](=O)[O-])cc1[N+](=O)[O-])N[*:1])[*:2]; Mca = COc1ccc2c(CC(=O)*)cc(=O)oc2c1

Tests used:
Format in all cases: biochemical
MMP2 = molecular target: T1, MMP2 (Homo sapiens, UniProt P08253); assay: Peptide probe cleavage assay (internally quenched MCA/DNP probes) with MMP2; conditions: 20 μM internally quenched peptide probe, 20 nM protease, 37° C.
T1 sequence (P08253 110-660): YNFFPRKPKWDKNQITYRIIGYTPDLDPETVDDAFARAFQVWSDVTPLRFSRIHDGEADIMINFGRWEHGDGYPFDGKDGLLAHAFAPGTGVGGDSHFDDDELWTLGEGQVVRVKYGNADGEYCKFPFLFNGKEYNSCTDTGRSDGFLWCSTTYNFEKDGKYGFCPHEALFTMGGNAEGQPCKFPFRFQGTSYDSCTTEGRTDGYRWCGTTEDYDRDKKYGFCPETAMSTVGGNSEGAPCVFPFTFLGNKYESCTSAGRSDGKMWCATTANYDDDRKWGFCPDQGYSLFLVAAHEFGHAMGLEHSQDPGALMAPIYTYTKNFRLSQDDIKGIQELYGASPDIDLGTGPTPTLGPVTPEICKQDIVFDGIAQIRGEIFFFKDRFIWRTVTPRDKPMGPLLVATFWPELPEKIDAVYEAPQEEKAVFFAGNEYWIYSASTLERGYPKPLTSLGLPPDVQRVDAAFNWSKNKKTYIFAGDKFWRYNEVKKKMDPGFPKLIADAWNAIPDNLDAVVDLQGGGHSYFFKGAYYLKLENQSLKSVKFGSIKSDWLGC

MMP9 = MMP9 (Homo sapiens, UniProt P14780); assay: Peptide probe cleavage assay (internally quenched MCA/DNP probes) with MMP9; conditions: 20 μM internally quenched peptide probe, 20 nM protease, 37° C.
[1] = molecular target: urokinase-type plasminogen activator (uPA) (Homo sapiens, UniProt P00749); assay: Peptide probe cleavage assay (internally quenched MCA/DNP probes) with uPA; conditions: 20 μM internally quenched peptide probe, 20 nM protease, 37° C.; — = below limit of quantification
[2] = molecular target: T2, membrane type serine protease 1 (MT-SP1) (Homo sapiens, UniProt Q9Y5Y6); assay: Peptide probe cleavage assay (internally quenched MCA/DNP probes) with MT-SP1; conditions: 20 μM internally quenched peptide probe, 20 nM protease, 37° C.
T2 sequence (Q9Y5Y6 1-855): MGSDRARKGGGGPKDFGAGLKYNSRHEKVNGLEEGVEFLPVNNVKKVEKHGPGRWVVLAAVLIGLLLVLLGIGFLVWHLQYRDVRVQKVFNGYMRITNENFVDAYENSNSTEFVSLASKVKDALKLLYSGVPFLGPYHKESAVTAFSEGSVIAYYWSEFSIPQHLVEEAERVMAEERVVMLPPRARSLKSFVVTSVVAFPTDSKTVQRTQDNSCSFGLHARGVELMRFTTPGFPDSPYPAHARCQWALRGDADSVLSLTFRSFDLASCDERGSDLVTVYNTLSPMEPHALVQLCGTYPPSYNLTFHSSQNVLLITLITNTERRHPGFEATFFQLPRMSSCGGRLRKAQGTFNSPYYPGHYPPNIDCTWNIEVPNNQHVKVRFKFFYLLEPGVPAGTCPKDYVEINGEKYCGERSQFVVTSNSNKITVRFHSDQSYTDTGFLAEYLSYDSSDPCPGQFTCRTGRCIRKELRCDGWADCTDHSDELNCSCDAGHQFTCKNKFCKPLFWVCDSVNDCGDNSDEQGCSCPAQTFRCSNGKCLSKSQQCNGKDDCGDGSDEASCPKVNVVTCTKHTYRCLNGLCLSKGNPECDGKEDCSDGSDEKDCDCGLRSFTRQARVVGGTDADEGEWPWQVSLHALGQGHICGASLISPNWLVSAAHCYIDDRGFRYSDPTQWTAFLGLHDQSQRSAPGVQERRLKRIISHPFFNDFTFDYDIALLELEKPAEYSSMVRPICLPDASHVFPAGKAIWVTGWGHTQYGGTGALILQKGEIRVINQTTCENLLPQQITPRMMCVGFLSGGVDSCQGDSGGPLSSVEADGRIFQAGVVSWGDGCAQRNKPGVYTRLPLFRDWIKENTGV

MMP14 = MMP14 (Homo sapiens, UniProt P50281); assay: Peptide probe cleavage assay (internally quenched MCA/DNP probes) with MMP14; conditions: 20 μM internally quenched peptide probe, 20 nM protease, 37° C.; — = below limit of quantification

MMP9, sequence (P14780 94-707): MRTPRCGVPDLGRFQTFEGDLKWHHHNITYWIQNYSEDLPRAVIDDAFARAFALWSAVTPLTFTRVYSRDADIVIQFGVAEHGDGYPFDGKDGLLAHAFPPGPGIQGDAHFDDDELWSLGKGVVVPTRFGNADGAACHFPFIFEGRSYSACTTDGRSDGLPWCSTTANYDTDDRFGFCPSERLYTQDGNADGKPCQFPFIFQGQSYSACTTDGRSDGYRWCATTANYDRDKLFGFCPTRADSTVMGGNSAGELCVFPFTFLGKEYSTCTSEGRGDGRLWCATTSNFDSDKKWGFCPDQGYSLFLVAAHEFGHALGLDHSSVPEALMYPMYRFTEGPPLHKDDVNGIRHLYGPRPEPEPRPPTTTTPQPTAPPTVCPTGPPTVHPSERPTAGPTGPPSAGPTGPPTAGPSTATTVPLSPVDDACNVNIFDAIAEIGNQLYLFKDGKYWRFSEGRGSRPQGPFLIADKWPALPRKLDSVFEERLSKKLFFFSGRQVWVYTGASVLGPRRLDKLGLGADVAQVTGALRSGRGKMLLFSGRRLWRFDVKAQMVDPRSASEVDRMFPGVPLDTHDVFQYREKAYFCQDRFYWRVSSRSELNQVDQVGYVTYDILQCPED

Row | Probe Cleavage (pM/s) MMP2 (MMP2) | Probe Cleavage (pM/s) MMP9 (MMP9) | Probe Cleavage (pM/s) uPA [1] | Probe Cleavage (pM/s) MT-SP1 [2] | Probe Cleavage (pM/s) MMP14 (MMP14) | Substance
1 | 66.4 pM/s | 581 pM/s |  |  |  | (MCA)-Gly-Ser-Trp-Gly-Leu-Ser-Gly-Arg-Ser-Gly-Lys (DNP)-D-Arg (Mca-GSWGLSGRSG-{K(DNP)-dR}; SMILES COc1ccc2c(CC(=O)NCC(=O)N[C@@H](CO)C(=O)N[C@@H](Cc3c[nH]c4ccccc34)C(=O)NCC(=O)N[C@@H](CC(C)C)C(=O)N[C@@H](CO)C(=O)NCC(=O)N[C@@H](CCCNC(=N)N)C(=O)N[C@@H](CO)C(=O)NCC(=O)N[C@@H](CCCCNc3ccc([N+](=O)[O-])cc3[N+](=O)[O-])C(=O)N[C@H](CCCNC(=N)N)C(=O)O)cc(=O)oc2c1) [CM WGLSGRS]
2 |  |  | 48.3 pM/s |  |  | (MCA)-Ser-Pro-Trp-Gly-Leu-Ser-Gly-Arg-Gly-Ser-Lys (DNP)-D-Arg (Mca-SPWGLSGRGS-{K(DNP)-dR}; SMILES COc1ccc2c(CC(=O)N[C@@H](CO)C(=O)N3CCC[C@H]3C(=O)N[C@@H](Cc3c[nH]c4ccccc34)C(=O)NCC(=O)N[C@@H](CC(C)C)C(=O)N[C@@H](CO)C(=O)NCC(=O)N[C@@H](CCCNC(=N)N)C(=O)NCC(=O)N[C@@H](CO)C(=O)N[C@@H](CCCCNc3ccc([N+](=O)[O-])cc3[N+](=O)[O-])C(=O)N[C@H](CCCNC(=N)N)C(=O)O)cc(=O)oc2c1) [CM PWGLSGR]
3 |  |  | 12.9 pM/s | 5.10 pM/s |  | (MCA)-Ser-Pro-Trp-Gly-Leu-Ser-Gly-Gly-Gly-Ser-Lys (DNP)-D-Arg (Mca-SPWGLSGGGS-{K(DNP)-dR}; SMILES COc1ccc2c(CC(=O)N[C@@H](CO)C(=O)N3CCC[C@H]3C(=O)N[C@@H](Cc3c[nH]c4ccccc34)C(=O)NCC(=O)N[C@@H](CC(C)C)C(=O)N[C@@H](CO)C(=O)NCC(=O)NCC(=O)NCC(=O)N[C@@H](CO)C(=O)N[C@@H](CCCCNc3ccc([N+](=O)[O-])cc3[N+](=O)[O-])C(=O)N[C@H](CCCNC(=N)N)C(=O)O)cc(=O)oc2c1) [CM PWGLSG]
4 | 816 pM/s |  |  |  | 224 pM/s | CM AWGLSGRS: internally quenched MCA/DNP probe SEQ ID NO: 699 with one residue replaced by Ala, CM AWGLSGRS (SEQ ID NO: 686) (not fully specified (N-terminus, C-terminus); also: MCA/DNP internal quench labels, places not given here)
5 |  |  |  |  | 190 pM/s | CM LSGRSPAGL: internally quenched MCA/DNP probe of design SEQ ID NO: 703, X1 Arg, X2 Ala, CM LSGRSPAGL (SEQ ID NO: 694) (also: MCA/DNP internal quench labels, places not given here)
6 | 202 pM/s | 456 pM/s |  |  | 29.7 pM/s | CM PWGASGRS: internally quenched MCA/DNP probe SEQ ID NO: 699 with one residue replaced by Ala, CM PWGASGRS (SEQ ID NO: 689) (not fully specified (N-terminus, C-terminus); also: MCA/DNP internal quench labels, places not given here)
7 |  |  | 126 pM/s |  |  | CM PWGLAGRS: internally quenched MCA/DNP probe SEQ ID NO: 699 with one residue replaced by Ala, CM PWGLAGRS (SEQ ID NO: 690) (not fully specified (N-terminus, C-terminus); also: MCA/DNP internal quench labels, places not given here)
8 | 3800 pM/s | 3830 pM/s |  | 1230 pM/s | 4380 pM/s | CM PWGLRS: internally quenched MCA/DNP peptide probe of design SEQ ID NO: 698, CM PWGLRS (SEQ ID NO: 48) (also: MCA/DNP internal quench labels, places not given here)
9 |  |  | 1.80 pM/s | 13.0 pM/s |  | CM PWGLSGAS: internally quenched MCA/DNP probe SEQ ID NO: 699 with one residue replaced by Ala, CM PWGLSGAS (SEQ ID NO: 692) (not fully specified (N-terminus, C-terminus); also: MCA/DNP internal quench labels, places not given here)
10 |  |  | 380 pM/s |  |  | CM PWGLSGRA: internally quenched MCA/DNP probe SEQ ID NO: 699 with one residue replaced by Ala, CM PWGLSGRA (SEQ ID NO: 693) (not fully specified (N-terminus, C-terminus); also: MCA/DNP internal quench labels, places not given here)
11 | 11700 pM/s | 25500 pM/s | 3210 pM/s | 2390 pM/s | 9580 pM/s | CM RSPWGL: internally quenched MCA/DNP peptide probe of design SEQ ID NO: 698, CM RSPWGL (SEQ ID NO: 90) (also: MCA/DNP internal quench labels, places not given here)
